Test results reported in US20050019801A1, “Stem cell-based methods for identifying and characterizing agents” (Curis, Inc., priority 2003, published 2005).
“Also recorded” adds a separate entry of the source.

Assays:
[1] = system: (HB9-GFP)-mouse embryonic stem cells; experiment: Motor neuron differentiation of (HB9-GFP)-mouse embryonic stem cell embryoid bodies, GFP by fluorescent or confocal microscopy; assay type: cell-based; settings: one day 100 nM RA and 50 ng/ml Sonic hedgehog protein, then three days with agent, fluorescent microscopy
Procedure: Briefly, mouse embryonic stem cells expressing GFP under the control of the HB9 promoter were cultured to confluence, trypsinized, and allowed to reaggregate to form embryoid bodies. The embryoid bodies were treated for one day with 100 nM RA and 50 ng/ml Sonic hedgehog protein. Subsequently, the embryoid bodies were cultured for three days with a previously identified hedgehog, small molecule agonist. Cultured embryoid bodies were analyzed by fluorescent and bright filed microscopy (FIG. 2).
As outlined above, the stem cell based methods of the invention can be used in many ways including, but not limited to, as a primary screen to identify agents that promote differentiation without regard to the mechanism of action; as a primary screen to identify agents that promote differentiation and that may act by agonizing or antagonizing a particular signaling pathway; or as a secondary screen to confirm that an agent that agonizes or antagonizes a particular signaling pathway also functions to promote differentiation along a particular lineage. […] Briefly, several small molecules were previously identified in a screen to identify agonists of the hedgehog signaling pathway. […] Mouse embryonic stem cells expressing GFP under the control of the HB9 promoter were cultured to confluence, trypsinized, and allowed to reaggregate to form embryoid bodies. The embryoid bodies were treated for one day with 100 nM RA and 50 ng/ml Sonic hedgehog protein. Subsequently, the embryoid bodies were cultured for three days with one of three previously identified hedgehog, small molecule agonists. Cultured embryoid bodies were analyzed by fluorescent microscopy for expression of GFP (FIG. 3).
Mouse embryonic stem cells were cultured and treated as described above. Following three days of culture in the presence of the hedgehog agonist, embryoid bodies were analyzed by confocal microscopy to allow analysis of sections throughout the embryoid body. Confocal images were compared to confocal images of embryoid bodies cultured in the absence of hedgehog agonist.
By way of example, known antagonists of BMP signaling include noggin, chordin, follistatin, cerberus, Dan, gremlin, ectodin, sclerostin, and ventroptin. Known antagonists of Wnt signaling include sFRP, WIF, dkk, and Cerberus. Briefly, mouse embryonic stem cells expressing GFP under the control of the HB9 promoter were cultured to confluence, trypsinized, and allowed to reaggregate to form embryoid bodies. The embryoid bodies were treated for one day with 100 nM RA and 50 ng/ml Sonic hedgehog protein. Subsequently, the embryoid bodies were cultured for three days with one of the following: 98 (a small molecule hedgehog agonist), chordin (a BMP antagonist), noggin (a BMP antagonist), gremlin (a BMP antagonist), Dan (a BMP antagonist), PTN (a neurotrophic factor), sFRP2 (a Wnt antagonist), dkk1 (a Wnt antagonist). Cultured embryoid bodies were analyzed by fluorescent microscopy for expression of GFP (FIG. 9).
Embryoid bodies were differentiated as described above for FIG. 9. […] Note, however, the morphological differences among cells types differentiated using each agent. Embryoid bodies treated with a Wnt antagonist were flatter than embryoid bodies treated with a BMP antagonist.

[2] = system: Mouse embryonic stem cells (embryoid bodies); experiment: Combinations of agents promoting motor neuron differentiation from embryoid bodies, HB9 expression; assay type: cell-based; settings: agent plus the same sub-threshold concentration of small molecule hedgehog agonist (Ag1.3)
Procedure: BMP antagonists and Wnt antagonists synergized with hedgehog agonists to promote motor neuron differentiation from embryoid bodies. Briefly, mouse embryonic stem cells were cultured, as described above.

B1: PTN: a neurotrophic factor (protein, UniProt P21246 33-168, looked up)
Pleiotrophin: GKKEKPEKKVKKSDCGEWQWSVCVPTSGDCGLGTREGTRTGAECKQTMKTQRCKIPCNWKKQFGAECKYQFQAWGECDLNTALKTRTGSLKRALHNAECQKTVTISKPCGKLTKPKPQAESKKKKKEGKKQEKMLD
Q: For B1, which “motor neuron differentiation, as measured by expression of the HB9 promoter-driven transgene (GFP)” value (“motor neuron differentiation … (GFP)” for short) [1] is on record?
A: Its value is “robustly promoted motor neuron differentiation”.

B2: dkk1: a Wnt antagonist (protein, UniProt O94907 32-266, looked up)
Dickkopf-related protein 1: TLNSVLNSNAIKNLPPPLGGAAGHPGSAVSAAPGILYPGGNKYQTIDNYQPYPCAEDEECGTDEYCASPTRGGDAGVQICLACRKRRKRCMRHAMCCPGNYCKNGICVSSDQNHFRGEIEETITESFGNDHSTLDGYSRRTTLSSKMYHTKGQEGSVCLRSSDCASGLCCARHFWSKICKPVLKEGQVCTKHRRKGSHGLEIFQRCYCGEGLSCRIQKDHHQASNSSRLHTCQRH
Q: For B2, which “motor neuron differentiation … (GFP)” value [1] is on record?
A: Its value is “robustly promoted motor neuron differentiation; also recorded: differentiated along a motor neuron lineage”.

B3: sFRP2: a Wnt antagonist (protein, UniProt Q96HF1 25-295, looked up)
Secreted frizzled-related …: LFLFGQPDFSYKRSNCKPIPANLQLCHGIEYQNMRLPNLLGHETMKEVLEQAGAWIPLVMKQCHPDTKKFLCSLFAPVCLDDLDETIQPCHSLCVQVKDRCAPVMSAFGFPWPDMLECDRFPQDNDLCIPLASSDHLLPATEEAPKVCEACKNKNDDDNDIMETLCKNDFALKIKVKEITYINRDTKIILETKSKTIYKLNGVSERDLKKSVLWLKDSLQCTCEEMNDINAPYLVMGQKQGGELVITSVKRWQKGQREFKRISRSIRKLQC
Q: What does the source list for B3?
A: motor neuron differentiation, as measured by expression of the HB9 promoter-driven transgene (GFP) [1]: differentiated along a motor neuron lineage; motor neuron differentiation, as measured by expression of the HB9 promoter-driven transgene (GFP) ([1]; listed as sFRP): robustly promoted motor neuron differentiation; motor neuron differentiation, as measured by expression of HB9 [2]: promoted motor neuron differentiation

B4: noggin: a BMP antagonist (protein, UniProt Q13253 28-232, looked up)
Noggin: QHYLHIRPAPSDNLPLVDLIEHPDPIFDPKEKDLNETLLRSLLGGHYDPGFMATSPPEDRPGGGGGAAGGAEDLAELDQLLRQRPSGAMPSEIKGLEFSEGLAQGKKQRLSKKLRRKLQMWLWSQTFCPVLYAWNDLGSRFWPRYVKVGSCFSKRSCSVPEGMVCKPSKSVHLTVLRWRCQRRGGQRCGWIPIQYPIISECKCSC
Q: B4 was tested. Which “motor neuron differentiation … (GFP)” value [1] did it give?
A: Its value is “robustly promoted motor neuron differentiation; also recorded: differentiated along a motor neuron lineage”.

Q: And the “motor neuron differentiation, as measured by expression of HB9” value [2]?
A: The value was “promoted motor neuron differentiation”.

B5: gremlin: a BMP antagonist (protein, UniProt O60565 25-184, looked up)
Gremlin-1: KKKGSQGAIPPPDKAQHNDSEQTQSPQQPGSRNRGRGQGRGTAMPGEEVLESSQEALHVTERKYLKRDWCKTQPLKQTIHEEGCNSRTIINRFCYGQCNSFYIPRHIRKEEGSFQSCSFCKPKKFTTMMVTLNCPELQPPTKKKRVTRVKQCRCISIDLD
Q: Which results are given for B5?
A: motor neuron differentiation, as measured by expression of the HB9 promoter-driven transgene (GFP) [1]: robustly promoted motor neuron differentiation; also recorded: differentiated along a motor neuron lineage; motor neuron differentiation, as measured by expression of HB9 [2]: promoted motor neuron differentiation
